Several values for one entry are separate records, joined by “and”; a condition that tells them apart may be missing. Identical values can stand only once.
What was measured:
[1] = biological target: TatB, wild type (E. coli) (UniProt P69425); assay: cross-linking
TatB(L54Bpa) (E. coli) = TatB(L54Bpa) (E. coli) (UniProt P69425); assay: cross-linking

Substance	percent of the vesicle-associated pSufI in the TatB adduct [1] [%]	stoichiometry N (TatB(L54Bpa) (E. coli))
pSufI(L328Bpa) (from UniProt P26648 1-470) (natural protein)	15	–
TatB(L54Bpa) (from UniProt P69425 1-171) (natural protein)	–	2 and 3

— paper PMC2993744
